Drawing on US20030036181A1, this text covers Vmax for uptake in the J774E macrophage cell line for 1 substance.

The assay concerns the target macrophage mannose receptor on J774E murine monocyte/macrophage cells (murine) (UniProt Q61830). The assay can be described thus: cell-based or functional assay.

Regarding “Cerezyme (from UniProt P04062 40-536) (enzyme)”, the Vmax for uptake in the J774E macrophage cell line is 0.52.
